Assay results from US12152088B2, “Co-assembly peptides, nanostructures, and methods of making and using the same” (University of Florida Research Foundation, Incorporated, priority 2016, dated 2024).

Columns and labels:
Type in all cases: physicochemical
[1] = Protein incorporation / retention in macroscopic hydrogels
Experimental: Protein Incorporation into Macroscopic Hydrogels. Hydrogels were prepared as described above, except 1.5 μM CATCH(−)GFP or mCATCH(−)GFP was added to the 12 mM CATCH(−) solution. Immediately after hydrogel formation, fluorescence was visualized by placing the glass vials on a SafeImager 2.0 transilluminator (Invitrogen) and recording images with a digital still camera. 800 μL of PBS was then carefully overlaid on top of hydrogel. The samples were then incubated for 48 hours to evaluate the protein incorporation within the hydrogel. At various time points, fluorescence in the buffer supernatant was visualized by placing the glass vials on a SafeImager 2.0 transilluminator (Invitrogen) and recording images with a digital still camera. At the end-point, buffer supernatant was carefully removed by decanting and fluorescence was visualized by placing the glass vials on a SafeImager 2.0 transilluminator (Invitrogen) and recording images with a digital still camera.

[2] = Circular dichroism (secondary structure); details: peptide incubated alone; CD maxima at 220 nm, minima at 200 nm
Experimental: Circular Dichroism. Circular Dichroism was performed on an AVIV 202 spectrometer. Peptides were prepared in 1× PBS at 500 μM, unless stated otherwise. Samples were run 3 times, averaged, and converted to mean residue ellipticity. All data reported was for dynode values <500 V.

[3] = Macroscopic hydrogel formation; details: aqueous buffered solutions of 12 mM
Experimental: Macroscopic Hydrogel Formation. A 12 mM stock solution of CATCH(−) was prepared by dissolving dry peptide in 1× PBS and adjusting the pH to ˜7.6 with ammonium bicarbonate (Fisher). A 12 mM stock solution of CATCH(+) was prepared by dissolving dry peptide in 1×PBS and adjusting the pH to ˜7.2 with hydrochloric acid (0.5 N Fisher). CATCH peptide stock solutions were combined at a 1:1 (v/v) ratio in a 0.2 mL glass vial (Thermo), and the vial was gently swirled for 2 min until the hydrogel formed. The hydrogel was stained with red food coloring to aid visualization. Hydrogel images were recorded using a digital still camera.

[4] = Nanofiber sedimentation, fusion protein integration into CATCH nanofibers; details: 500 μM CATCH(4/4) or CATCH(6/6) nanofibers
Experimental: Briefly, 500 μM CATCH(4/4) nanofiber sedimentation in the presence of (FIG. 42A) ThT, (FIG. 42B) CATCH(6-)GFP, (FIG. 42C) mCATCH(6-)GFP. […] 500 μM CATCH(6/6) nanofiber sedimentation in the presence of (FIG. 42E) ThT, (FIG. 42F) CATCH(6-) GFP, (FIG. 42G) mCATCH(6-)GFP.

| Substance | hydrogel fluorescence after incubation ([1]; CATCH hydrogels under volumetric excess of 1× PBS for 48 h) | GFP in the buffer layer over hydrogels ([1]; excess buffer, up to 48 h) | secondary structure [2] | flow behaviour / hydrogel formation [3] | integration into CATCH nanofibers [4] |
| --- | --- | --- | --- | --- | --- |
| CATCH(−)GFP: recombinant fusion of CATCH(−) and superfolder green fluorescent protein (GFP) | retained their fluorescence | no GFP was detected | – | – | – |
| Ac-EQEFEFEFEQE-Am (Ac-EQEFEFEFEQE-NH2) [CATCH(−)] | – | – | predominantly random coil | free flowing | integrates into both CATCH(6/6) and CATCH(4/4) nanofibers |
| Ac-QQKFKFKFKQQ-Am (Ac-QQKFKFKFKQQ-NH2) [CATCH(+)] | – | – | predominantly random coil | free flowing | – |
